From patent US20190248889A1 (Genentech, published 2019) come the findings set out here.

The assay has as its target T1, human LgR5 (human, UniProt O75473 22-907).
T1 construct: This one molecule is used for transfected 293 cells and for endogenous LgR5 in human cells and tissues; also called leucine-rich repeat-containing G protein-coupled receptor 5
T1 sequence: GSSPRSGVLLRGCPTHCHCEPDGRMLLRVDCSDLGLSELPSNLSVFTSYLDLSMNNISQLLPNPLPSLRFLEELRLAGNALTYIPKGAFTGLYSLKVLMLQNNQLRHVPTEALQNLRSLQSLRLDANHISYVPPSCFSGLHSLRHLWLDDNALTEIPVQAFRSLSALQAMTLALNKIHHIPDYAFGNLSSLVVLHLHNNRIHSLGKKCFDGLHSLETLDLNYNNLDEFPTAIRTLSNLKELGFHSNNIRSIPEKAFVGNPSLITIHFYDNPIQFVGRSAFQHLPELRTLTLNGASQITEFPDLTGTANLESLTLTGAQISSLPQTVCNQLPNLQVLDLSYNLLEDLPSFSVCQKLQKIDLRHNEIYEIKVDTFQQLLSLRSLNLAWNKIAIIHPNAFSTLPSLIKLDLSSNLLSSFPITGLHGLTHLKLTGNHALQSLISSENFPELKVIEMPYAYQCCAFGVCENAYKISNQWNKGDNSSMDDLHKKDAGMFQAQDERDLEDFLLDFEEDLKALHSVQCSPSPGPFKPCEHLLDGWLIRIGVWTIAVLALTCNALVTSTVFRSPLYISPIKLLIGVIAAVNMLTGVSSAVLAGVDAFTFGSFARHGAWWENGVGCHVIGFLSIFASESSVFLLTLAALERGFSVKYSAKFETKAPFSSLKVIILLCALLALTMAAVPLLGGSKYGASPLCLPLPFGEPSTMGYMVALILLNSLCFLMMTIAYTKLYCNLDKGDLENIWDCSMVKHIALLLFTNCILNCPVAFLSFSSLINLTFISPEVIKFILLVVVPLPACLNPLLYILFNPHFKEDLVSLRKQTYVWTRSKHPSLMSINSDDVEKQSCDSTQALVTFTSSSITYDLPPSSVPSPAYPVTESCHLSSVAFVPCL
Description: IHC on SW403 colon cancer cell line. How it is done:
Staining with antibody LGR5.26-1 was compared to staining with antibody LGR5.1-12 in CXF233 (human colon tumor model; Oncotest) xenograft tumors and in various colon cancer cell lines. Immunohistochemistry (IHC) for Lgr5 was performed on a Dako Universal Autostainer (Dako, Carpinteria, Calif.). Briefly, formalin-fixed, paraffin-embedded tumor tissue were deparaffinized and antigen unmasking was performed in a PT Module (Thermo Scientific, Kalamazoo, Mich.) with Target Retrieval pH 6 (Dako) at 99° C. for 20 minutes. Endogenous peroxidase was inhibited with treatment of 3% H202 in PBS for 4 minutes and endogenous biotin was blocked using the Avidin/Biotin blocking kit (Vector Labs, Burlingame, Calif.). Endogenous IgGs were blocked using 10% donkey serum in 3% BSA/PBS and primary antibody to Lgr5 (LGR5.1-12 or 26-1) was incubated at 4 μg/ml for 60 minutes at room temperature. […] Antibody binding was detected with Metal enhanced DAB (Pierce Rockford, Ill.) for 5 minutes at room temperature and sections were counterstained with Mayer's Hematoxylin (Rowley Biochemical, Danvers, Mass.).
Each cell line was also characterized by lgr5 gene expression using RNAseq data into the following levels of expression: none, very low, low, moderate, and high. In addition, LgR5 levels were determined in the cell lines by IHC, substantially as described above.

B1: antibody LGR5.26-1 (antibody, V domains shown)
VH: QSLEESGGDLVKPGGTLTLTCTASGIDFSYYSYMCWVRQAPGKGLEWIACIYAGTSGSTYYASWAKGRFTISKTSSTTVTLQMISLTAADTATYFCARSYYTFGVNGYAWDLWGPGTLVTVSS
VL: AFELTQTPSSVEAAVGGTVTIKCQASQSISVGLAWYQQKPGQPPKLLIYKASTLASGVPSRFKGSRSGTEFTLTISDLECADAATYYCQSYYDSSTTANVFGGGTEVVVKG
notes: also called αLgR5.26-1; antibody 26-1
As to B1, the binding result is “binds”.

B2: antibody LGR5.1-12 (antibody, V domains shown)
VH: QSLEESGGGLVQPEGSLTLTCTASGFSFSRTYWICWDRQAPGKGLEWIACIYAGGSDNTYYASWAKGRFTISKTSSTTVTLQVTSLTAADTATYFCARYYAGSSEYFNLWGPGTLVTVSS
VL: AYDMTQTPASVEVAVGGTVTIKCQASQSIGSNLAWYQQKPGQPPKLLIYGASNLASGVSSRFKGSGSGTEFTLTISDLECADAATYYCQTTYGSSSDGFFWTFGGGTEVVVKG
notes: also called αLgR5.1-12; antibody 1-12
With B2, the binding result is listed as “binds”.
